This note sets out measurements from patent US20220204611A1.

The target of this experiment is human TREM2 on cells (human) (UniProt Q9NZC2). The experiment in a line: cell-based or functional assay.
Sequence of human TREM2 on cells (human) (Q9NZC2 19-230): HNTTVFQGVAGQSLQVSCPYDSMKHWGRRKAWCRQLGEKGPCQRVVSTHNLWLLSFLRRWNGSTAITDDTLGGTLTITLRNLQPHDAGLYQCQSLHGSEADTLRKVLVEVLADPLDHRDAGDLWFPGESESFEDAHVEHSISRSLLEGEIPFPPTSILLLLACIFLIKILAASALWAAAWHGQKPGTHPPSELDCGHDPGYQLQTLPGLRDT

In the case of “rat anti-human/mouse TREM2 antibody mAb17291 (Rat IgG2b Clone #237920, R&D Systems)”, the Emax (% maximum activation compared to RnD antibody) is 100%; the pSyk EC50, HEK293T human TREM2/DAP12 was 0.5 nM; the pSyk EC50, differentiated THP-1 cells is 0.383 nM; the pSyk Emax, HEK293T human TREM2/DAP12 came out at 13.8.
